The source of these data is US20250145691A1 (University of Texas, published 2025).

For one test, the target named is RBD (SARS-CoV-2, UniProt P0DTC2 319-591). Briefly: ELISA and biolayer interferometry (BLI).
Another test addresses T1, NTD (UniProt P0DTC2 14-303).
T1 construct: domain: NTD; also called N-terminal domain
Briefly: ELISA and biolayer interferometry (BLI).

B1: antibody SC45 (antibody, V domains shown)
VH: QVQLQESGPGLVKSSETLSLTCTVSGGSISSYYWSWIRQPPGKGLEWIGCIYSSGSTNYNPSLKSRVTISVDSSKNQFSLRLNSVTAADTAVYYCARHKGTDFWSGYSFTPRGGWFDPWGQGALVSVSS
VL: DIQMTQSPSSLSASVGDRVTITCRASQSISSYLNWYQQKPGKAPKLLIYGASNLQSGVPSRFSGSGSETDFTLTISSLQPEDFASYYCQQSHSIPVTFGQGTKLEIK
With B1, the binding result with RBD and with NTD was “no binding” in each case.
